What was measured:
[1] = molecular target: HLA-A*02:01; test: IEDB peptide-MHC binding, purified MHC/competitive/fluorescence; ≥ and ≤ were set here for values at or beyond the usual limits of such assays
[2] = molecular target: HLA-A*30:01; test: IEDB peptide-MHC binding, purified MHC/competitive/radioactivity; filed as Kd, often an IC50 or EC50 that approximates it; ≥ and ≤ were set here for values at or beyond the usual limits of such assays
[3] = molecular target: HLA-A*02:02; test: as above
[4] = molecular target: HLA-A*02:06; test: as above
[5] = molecular target: HLA-A*02:03; test: as above
[6] = molecular target: HLA-A*02:01; test: IEDB peptide-MHC binding, purified MHC/direct/fluorescence; filed as Kd, often an IC50 or EC50 that approximates it; ≥ and ≤ were set here for values at or beyond the usual limits of such assays
[7] = molecular target: HLA-A*03:01; test: IEDB peptide-MHC binding, purified MHC/competitive/radioactivity; filed as Kd, often an IC50 or EC50 that approximates it; ≥ and ≤ were set here for values at or beyond the usual limits of such assays
[8] = molecular target: HLA-A*30:02; test: as above; conditions: source organism: Dengue virus 2 Jamaica/1409/1983
[9] = molecular target: HLA-A*23:01; test: as above
[10] = molecular target: HLA-A*11:01; test: as above; conditions: source organism: Dengue virus 2 Jamaica/1409/1983
[11] = molecular target: HLA-A*31:01; test: as above; conditions: source organism: Mammarenavirus brazilense
[12] = molecular target: HLA-A*68:01; test: as above; conditions: source organism: Mammarenavirus brazilense
[13] = molecular target: HLA-A*33:01; test: as above; conditions: source organism: Mammarenavirus brazilense
[14] = molecular target: HLA-A*26:01; test: as above
[15] = molecular target: HLA-A*03:01; test: IEDB peptide-MHC binding, purified MHC/direct/fluorescence; filed as Kd, often an IC50 or EC50 that approximates it; ≥ and ≤ were set here for values at or beyond the usual limits of such assays; conditions: source organism: Vibrio cholerae
[16] = molecular target: HLA-B*58:01; test: as above; conditions: source organism: Mycobacterium tuberculosis variant bovis
[17] = molecular target: HLA-A*24:02; test: IEDB peptide-MHC binding, purified MHC/competitive/radioactivity; filed as Kd, often an IC50 or EC50 that approximates it; ≥ and ≤ were set here for values at or beyond the usual limits of such assays
[18] = molecular target: HLA-A*01:01; test: IEDB peptide-MHC binding, purified MHC/direct/fluorescence; filed as Kd, often an IC50 or EC50 that approximates it; ≥ and ≤ were set here for values at or beyond the usual limits of such assays; conditions: source organism: Homo sapiens
[19] = source organism: Zaire ebolavirus
[20] = source organism: Dengue virus 1 Brazil/97-11/1997
[21] = source organism: Vaccinia virus WR
[22] = source organism: Dengue virus 2 Jamaica/1409/1983
[23] = source organism: Lymphocytic choriomeningitis virus (strain Armstrong)
[24] = source organism: Mammarenavirus brazilense
[25] = source organism: SARS coronavirus Tor2

## QDQDHTQEA
[1]; [19]
  IC50: ≥ 321000 nM

## RFLAIPPTA
[2]; [20]
  Kd: 127 nM

## RILSEKRKDT
[3]; [21]
  Kd: 711 nM
[4]; [21]
  Kd: 6860 nM
[5]; [21]
  Kd: 4160 nM

## RLGPTLMCL
[1]; source organism: Homo sapiens
  IC50: 1780 nM

## RMIAISAKV
[6]; source organism: Camelpox virus M-96
  Kd: 3.4 nM

## RQLTSNVDV
[3]; [21]
  Kd: ≥ 50800 nM
[4]; [21]
  Kd: 170 nM
[5]; [21]
  Kd: 9760 nM

## RSEELSFTV
[1]; [19]
  IC50: 2380 nM

## RTIDAINKCV
[3]; [21]
  Kd: 10800 nM
[4]; [21]
  Kd: 341 nM
[5]; [21]
  Kd: 334 nM

## RTMPNESRV
[3]; [21]
  Kd: 140 nM
[4]; [21]
  Kd: 155 nM
[5]; [21]
  Kd: 100 nM

## RTRVGTKHA
[2]; [22]
  Kd: 0.02 nM

## RTTWSIHAK
[7]; [22]
  Kd: 6.99 nM
[2]; [22]
  Kd: 80.9 nM

## RVAAEGINY
[8]
  Kd: 48.4 nM

## RVRYLTRNY
[2]; [21]
  Kd: 5.62 nM

## RVSTGSQLA
[2]; [20]
  Kd: 81.3 nM

## RVSTVSQLA
[2]; source organism: Dengue virus 1 Nauru/West Pac/1974
  Kd: 355 nM

## SFGCKPLTMF
[9]; [20]
  Kd: 103 nM

## SIAMLKSKNI
[3]; [21]
  Kd: 1090 nM
[4]; [21]
  Kd: 259 nM
[5]; [21]
  Kd: 55 nM

## SILASSLLK
[7]; [22]
  Kd: 13.8 nM
[10]
  Kd: 11 nM
[2]; [22]
  Kd: 190 nM

## SLIYYQNEVT
[3]; [21]
  Kd: 77.2 nM
[4]; [21]
  Kd: 4310 nM
[5]; [21]
  Kd: 606 nM

## SNSEDLLKAV
[3]; [23]
  Kd: 17700 nM
[4]; [23]
  Kd: ≥ 10000 nM
[5]; [23]
  Kd: 15200 nM

## SSQRDTILK
[7]; [24]
  Kd: 270 nM
[11]
  Kd: 2570 nM
[12]
  Kd: 388 nM
[13]
  Kd: ≥ 24200 nM
[2]; [24]
  Kd: 46.5 nM

## STIPETILEL
[4]; [22]
  Kd: 79.6 nM
[14]; [22]
  Kd: 831 nM

## SVIDCNTCV
[1]; source organism: Hepatitis C virus genotype 1
  IC50: 5000 nM

## TIAGGVCYYL
[3]; [21]
  Kd: 0.036 nM
[4]; [21]
  Kd: 4.01 nM
[5]; [21]
  Kd: 34.3 nM

## TIAVSVYGAI
[3]; [21]
  Kd: 1550 nM
[4]; [21]
  Kd: 5390 nM
[5]; [21]
  Kd: 582 nM

## TILATLNTL
[3]; [21]
  Kd: 238 nM
[4]; [21]
  Kd: 25.6 nM
[5]; [21]
  Kd: 33.8 nM

## TLILAGVSLL
[14]; source organism: Dengue virus 3 Martinique/1243/1999
  Kd: 6690 nM

## TLNRCALLR
[15]
  Kd: 2230 nM

## TTIAVSMAN
[14]; [22]
  Kd: 5160 nM

## TTTYKAFDW
[16]
  Kd: 71.3 nM

## TWLVHKQWFL
[9]; source organism: Dengue virus 4 Philippines/H241/1956
  Kd: 124 nM

## TWSIHAHHQW
[17]; [20]
  Kd: 1080 nM
[9]; [20]
  Kd: 950 nM

## VDTRTPRPMP
[2]; source organism: Dengue virus 3 Sri Lanka/1266/2000
  Kd: 415 nM

## VLQQNNSFII
[3]; [21]
  Kd: 665 nM
[4]; [21]
  Kd: 9650 nM
[5]; [21]
  Kd: 1030 nM

## VMDKNHAIFT
[3]; [21]
  Kd: 18700 nM
[4]; [21]
  Kd: ≥ 69800 nM
[5]; [21]
  Kd: 11500 nM

## VVISVIFYFI
[3]; [21]
  Kd: 239 nM
[4]; [21]
  Kd: 542 nM
[5]; [21]
  Kd: 755 nM

## VVIVENDNV
[3]; [21]
  Kd: 13200 nM
[4]; [21]
  Kd: 4300 nM
[5]; [21]
  Kd: ≥ 38000 nM

## VYKEGTFHTM
[17]; [22]
  Kd: 14.7 nM

## WLKDSAIMVA
[3]; [21]
  Kd: 14.8 nM
[4]; [21]
  Kd: 4840 nM
[5]; [21]
  Kd: 1320 nM

## WLLWPVTLA
[3]; [25]
  Kd: 11.8 nM
[4]; [25]
  Kd: 17.4 nM
[5]; [25]
  Kd: 1.2 nM

## YAVLSEYET
[3]; [21]
  Kd: 1780 nM
[4]; [21]
  Kd: 1330 nM
[5]; [21]
  Kd: ≥ 35100 nM

## YLDFGGPEG
[18]
  Kd: 2460 nM
[6]; source organism: Homo sapiens
  Kd: 1500 nM

## YMDDRDINP
[1]; source organism: Vaccinia virus
  IC50: 27100 nM

## YVSSSYKDI
[3]; [21]
  Kd: 5040 nM
[4]; [21]
  Kd: 16600 nM
[5]; [21]
  Kd: 1200 nM
